No end group written: not given here. *: point of attachment. NH(CH2)5NH2 = NCCCCCN*

The chains are these.
B9: E. coli CsgG (wild-type) fused C-terminally to a Strep-II tag, outer membrane pore (other)
chain: CLTAPPKEAARPTLMPRAQSYKDLTHLPAPTGKIFVSVYNIQDETGQFKPYPASNFSTAVPQSATAMLVTALKDSRWFIPLERQGLQNLLNERKIIRAAQENGTVAINNRIPLQSLTAANIMVEGSIIGYESNVKSGGVGARYFGIGADTQYQLDQIAVNLRVVNVSTGEILSSVNTSKTILSYEVQAGVFRFIDYQRLLEGEVGYTSNEPVMLCLMSAIETGVIFLINDGIDRGLWDLQNKAERQNDILVKYRHMSVPPES
modifications: N-terminal lipidation of mature CsgG (Cys at the N-terminal position)
notes: Nonameric pore; dimers of nonamers also seen; also called CsgG-Strep; CsgG-strep; not shown: C-terminal Strep-II tag

Data set [1] addresses B9. Kind of data set: co-expression, Strep affinity purification, anti-His dot blot.
The target in data set [2] is B9. Kind of data set: cryo-EM of co-purified or in vitro reconstituted CsgG:CsgF particles.
Data set [3] has as its target T1, CsgG Y51A/N55V/F56Q/N91R/K94Q/R97W-del(V105-I107) pore containing the C terminal strep tag (E. coli, UniProt P0AEA2 16-277).
T1 construct: Oligomeric CsgG pore; also called Y51A/F56Q/N55V/N91R/K94Q/R97W-del(V105-I107); not shown: C-terminal Strep tag
T1 chain: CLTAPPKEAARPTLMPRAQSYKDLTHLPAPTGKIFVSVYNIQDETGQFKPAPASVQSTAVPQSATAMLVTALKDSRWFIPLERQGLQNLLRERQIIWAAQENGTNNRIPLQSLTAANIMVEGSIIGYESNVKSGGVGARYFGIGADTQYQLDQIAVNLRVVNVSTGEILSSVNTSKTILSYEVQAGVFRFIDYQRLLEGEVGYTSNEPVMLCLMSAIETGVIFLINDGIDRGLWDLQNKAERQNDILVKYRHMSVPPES
Kind of data set: in vitro reconstitution; DNA translocation current recording.

Data set [4] concerns the target T2, CsgG Y51T/N55V/F56Q/N91R/K94Q/R97W-del(V105-I107) pore containing the C terminal strep tag (E. coli, UniProt P0AEA2 16-277).
T2 construct: not shown: C-terminal Strep tag
T2 chain: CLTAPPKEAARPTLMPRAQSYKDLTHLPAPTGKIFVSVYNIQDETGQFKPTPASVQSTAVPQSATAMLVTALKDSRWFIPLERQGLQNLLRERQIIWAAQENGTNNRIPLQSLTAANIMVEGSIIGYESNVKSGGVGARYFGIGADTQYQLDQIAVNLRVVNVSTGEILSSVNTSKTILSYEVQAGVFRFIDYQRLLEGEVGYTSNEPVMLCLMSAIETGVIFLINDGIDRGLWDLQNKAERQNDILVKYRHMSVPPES
Kind of data set: panel B; in vitro reconstitution; DNA translocation current recording.

Data set [5] addresses T3, CsgG Y51A/N55I/F56Q/N91R/K94Q/R97W-del(V105-I107) pore containing the C terminal strep tag (E. coli, UniProt P0AEA2 16-277).
T3 construct: also called Y51A/N551/F56Q/N91R/K94Q/R97W-del(V105-I107) (sic); not shown: C-terminal Strep tag
T3 chain: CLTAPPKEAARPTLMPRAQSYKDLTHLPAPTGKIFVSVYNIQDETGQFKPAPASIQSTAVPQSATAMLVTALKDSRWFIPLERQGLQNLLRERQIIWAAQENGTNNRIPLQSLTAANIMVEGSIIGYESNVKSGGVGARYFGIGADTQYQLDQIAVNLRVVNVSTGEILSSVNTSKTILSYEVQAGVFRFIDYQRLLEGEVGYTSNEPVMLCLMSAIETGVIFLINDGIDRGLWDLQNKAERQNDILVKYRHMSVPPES
Put plainly: panel C; in vitro reconstitution; DNA translocation current recording.

Data set [6] deals with T4, CsgG Y51A/F56A/N91R/K94Q/R97W-del(V105-I107) pore containing the C terminal strep tag (E. coli, UniProt P0AEA2 16-277).
T4 construct: not shown: C-terminal Strep tag
T4 chain: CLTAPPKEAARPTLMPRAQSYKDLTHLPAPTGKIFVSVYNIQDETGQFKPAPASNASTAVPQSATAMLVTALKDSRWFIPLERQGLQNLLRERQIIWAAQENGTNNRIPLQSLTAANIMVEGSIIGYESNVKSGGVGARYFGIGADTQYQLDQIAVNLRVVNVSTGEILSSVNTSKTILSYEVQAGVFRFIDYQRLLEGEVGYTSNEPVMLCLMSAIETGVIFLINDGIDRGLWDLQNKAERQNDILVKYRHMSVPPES
Put plainly: panel D; in vitro reconstitution; DNA translocation current recording.

The target in data set [7] is T5, CsgG Y51S/N55V/F56Q/N91R/K94Q/R97W-del(V105-I107) pore containing the C terminal strep tag (E. coli, UniProt P0AEA2 16-277).
T5 construct: also called Y515/N55V/F56Q/N91R/K94Q/R97W-del(V105-I107) (sic); not shown: C-terminal Strep tag
T5 chain: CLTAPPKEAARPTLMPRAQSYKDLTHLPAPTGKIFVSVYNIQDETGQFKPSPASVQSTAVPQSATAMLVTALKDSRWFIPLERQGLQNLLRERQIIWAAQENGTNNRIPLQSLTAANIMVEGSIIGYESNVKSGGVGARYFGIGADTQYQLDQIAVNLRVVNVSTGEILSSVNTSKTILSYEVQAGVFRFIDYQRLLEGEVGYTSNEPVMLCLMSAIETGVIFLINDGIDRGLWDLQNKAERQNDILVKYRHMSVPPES
Kind of data set: panel F; in vitro reconstitution; DNA translocation current recording.

Data set [8] has as its target T1, CsgG …. Put plainly: reconstitution with synthetic peptide, electrophysiology.
Data set [9] deals with the molecule itself. Kind of data set: size exclusion chromatography (S200 increase) of Strep- and ion-exchange-purified CsgG pore; pore-pore dimer.
The target in data set [10] is B9. Kind of data set: in vitro reconstitution (2:1 molar ratio), StrepTactin pull down, native PAGE with fluorescence.
Data set [11] has as its target T6, CsgG Y51A/F56Q/K94Q/R97W/R192D-del(V105-I107), Strep-tagged (E. coli, UniProt P0AEA2 16-277).
T6 construct: Oligomeric CsgG pore; also called CsgG mutant with altered constriction; not shown: Strep tag
T6 chain: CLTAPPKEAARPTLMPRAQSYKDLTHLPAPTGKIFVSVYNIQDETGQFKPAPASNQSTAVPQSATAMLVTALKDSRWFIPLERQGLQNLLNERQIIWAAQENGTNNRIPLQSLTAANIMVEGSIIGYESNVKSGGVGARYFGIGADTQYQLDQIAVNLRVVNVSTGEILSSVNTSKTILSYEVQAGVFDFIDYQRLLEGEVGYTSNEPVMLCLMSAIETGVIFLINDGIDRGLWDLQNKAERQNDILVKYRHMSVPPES
Described as above.

Data set [12] deals with the molecule itself. Kind of data set: size exclusion chromatography (Superose 6); pore-pore dimer. In general terms: In gel filtration, larger molecules generally elute earlier.
In data set [13] the target is T7, CsgG Y51A/F56Q/N91R/K94Q/R97W-del(V105-I107) pore containing the C terminal strep tag (E. coli, UniProt P0AEA2 16-277).
T7 construct: Oligomeric CsgG pore; not shown: C-terminal Strep tag
T7 chain: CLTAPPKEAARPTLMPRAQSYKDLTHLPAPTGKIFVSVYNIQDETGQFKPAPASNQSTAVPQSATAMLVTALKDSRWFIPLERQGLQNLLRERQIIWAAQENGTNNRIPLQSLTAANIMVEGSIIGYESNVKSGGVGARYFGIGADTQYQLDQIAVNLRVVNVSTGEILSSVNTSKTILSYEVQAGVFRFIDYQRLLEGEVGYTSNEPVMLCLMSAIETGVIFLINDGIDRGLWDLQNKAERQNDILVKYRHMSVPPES
Kind of data set: co-expression, purification, TEV cleavage; DNA translocation current recording.

B1: CsgF 20:64 peptide with C-terminal 6xHis (from pNA100) (peptide)
peptide: GTMTFQFRNPNFGGNPNNGAFLLNSAQAQNSYKDPSYNDDFGIETHHHHHH
notes: first 45 residues of mature CsgF; also called CsgF fragment 1-64; CsgF 1-64
Regarding B1, the binding result in data set [1] is “binds”.

B2: E. coli CsgF (mature) with C-terminal 6x histidine tag (other)
chain: GTMTFQFRNPNFGGNPNNGAFLLNSAQAQNSYKDPSYNDDFGIETPSALDNFTQAIQSQILGGLLSNINTGKPGRMVTNDYIVDIANRDGQLQLNVTDRKTGQTSTIQVSGLQNNSTDFHHHHHH
notes: also called CsgF-His; CsgF-his
As to B2, the binding result in data set [2] is recorded as “binds”.

B3: CsgF-N17S-(1-35) peptide (peptide)
peptide: GTMTFQFRNPNFGGNPSNGAFLLNSAQAQNSYKDP
notes: also called CsgF-N175-(1-35) (sic)
As for B3, the binding result in data set [3], in [4], in data set [5], in data set [6] and in [7] was “binds” each time.

B4: CsgF-N17V-(1-35) peptide (peptide)
peptide: GTMTFQFRNPNFGGNPVNGAFLLNSAQAQNSYKDP
On to B4, for which the binding result in data set [3] is recorded as “binds”.

B5: CsgF-(1-29) synthetic peptide (peptide)
peptide: GTMTFQFRNPNFGGNPNNGAFLLNSAQAQ
As for B5, the binding result in [8] is listed as “binds”.

B6: Pro-CP1-Eco-(WT-Y51A/F56Q/D149N/E185N/E201N/E203N-StrepII(C)) CsgG pore (other)
chain: CLTAPPKEAARPTLMPRAQSYKDLTHLPAPTGKIFVSVYNIQDETGQFKPAPASNQSTAVPQSATAMLVTALKDSRWFIPLERQGLQNLLNERKIIRAAQENGTVAINNRIPLQSLTAANIMVEGSIIGYESNVKSGGVGARYFGIGANTQYQLDQIAVNLRVVNVSTGEILSSVNTSKTILSYNVQAGVFRFIDYQRLLNGNVGYTSNEPVMLCLMSAIETGVIFLINDGIDRGLWDLQNKAERQNDILVKYRHMSVPPESSAWSHPQFEK
notes: The entry already holds the mutations and the StrepII tag; also called Pro-CP1-Eco-(Mutant-StrepII(C)); monomeric pore
As to B6, the binding result in data set [9] is “binds”.

B7: CsgF-(1-30) synthetic peptide (peptide)
peptide: GTMTFQFRNPNFGGNPNNGAFLLNSAQAQN
notes: Range counted on mature CsgF; also called mature peptide of CsgF 1:30
For the molecule B7, the binding result in [8] was “binds”.

B8: Alexa 594-labelled synthetic CsgF peptide corresponding to the first 34 residues of mature CsgF (peptide)
peptide: GTMTFQFRNPNFGGNPNNGAFLLNSAQAQNSYKD-{NH(CH2)5NH2-Alexa594}
notes: also called CsgF N-terminal peptide; FCP
In the case of B8, the binding result in [10] and in [11] was “binds” each time.

With B9, in data set [12], the binding result is “binds”.

B10: CsgF truncated at position 35 by TEV protease cleavage, with ENLYFQ left at the cleavage site (peptide)
peptide: GTMTFQFRNPNFGGNPNNGAFLLNSAQAQNSYKDPENLYFQ
notes: also called CsgF truncated protein; No mutations at 17 position of CsgF
Consider B10, for which the binding result in data set [13] is reported as “binds”.

B11: CsgF N17S truncated at position 35 by TEV protease cleavage, with ENLYFQ left at the cleavage site (peptide)
peptide: GTMTFQFRNPNFGGNPSNGAFLLNSAQAQNSYKDPENLYFQ
notes: also called N175 mutation in CsgF (sic, N17S)
Regarding B11, in data set [13], the binding result was “binds”.
